T1: B7-DCIg (Homo sapiens, UniProt Q9BQ51)
T1 construct: Ig fusion protein purchased from R&D systems; also called human B7-DCIg fusion protein
T1 sequence (fusion protein, looked up): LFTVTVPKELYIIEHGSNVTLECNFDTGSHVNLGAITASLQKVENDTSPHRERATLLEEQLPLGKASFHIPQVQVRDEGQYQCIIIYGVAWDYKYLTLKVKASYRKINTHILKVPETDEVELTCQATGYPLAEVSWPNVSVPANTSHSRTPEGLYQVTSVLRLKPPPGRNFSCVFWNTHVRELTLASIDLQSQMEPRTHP

T2: human B7-1Ig fusion protein (human, UniProt P33681 35-242)
T2 construct: Bought from R&D Systems; Ig (Fc) part not given
T2 sequence (looked up): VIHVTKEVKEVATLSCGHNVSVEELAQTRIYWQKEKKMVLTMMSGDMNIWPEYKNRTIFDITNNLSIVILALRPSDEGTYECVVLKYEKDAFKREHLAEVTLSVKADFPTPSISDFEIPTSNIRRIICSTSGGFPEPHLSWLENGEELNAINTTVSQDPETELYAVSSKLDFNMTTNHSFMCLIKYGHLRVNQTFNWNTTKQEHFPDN

T3: human B7-H2Ig fusion protein (human, UniProt O75144 19-258)
T3 construct: Ig (Fc) part not given
T3 sequence: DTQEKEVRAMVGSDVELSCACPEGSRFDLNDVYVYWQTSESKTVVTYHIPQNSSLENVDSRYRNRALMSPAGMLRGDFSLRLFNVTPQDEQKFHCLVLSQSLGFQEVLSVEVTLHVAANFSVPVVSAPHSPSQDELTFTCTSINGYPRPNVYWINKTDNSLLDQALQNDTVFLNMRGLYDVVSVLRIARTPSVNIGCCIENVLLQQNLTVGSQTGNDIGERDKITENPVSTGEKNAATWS

T4: human B7-H2, full length, expressed on cells (B7-H2+293T cells) (human, UniProt O75144 19-302)
T4 construct: This id also stands for endogenous B7-H2 on monocyte-derived dendritic cells in the functional rows; also called ICOSL; ICOSLG
T4 sequence: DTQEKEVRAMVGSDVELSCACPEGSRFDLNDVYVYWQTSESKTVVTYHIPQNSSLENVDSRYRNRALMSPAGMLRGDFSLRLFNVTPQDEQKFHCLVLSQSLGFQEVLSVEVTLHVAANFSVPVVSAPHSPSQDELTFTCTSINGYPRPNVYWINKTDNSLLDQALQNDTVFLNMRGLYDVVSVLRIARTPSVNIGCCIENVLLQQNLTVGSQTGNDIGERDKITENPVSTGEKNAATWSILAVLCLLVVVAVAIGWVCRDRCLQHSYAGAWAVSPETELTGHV

T5: human B7-1 (CD80) expressed on 293T cells (human, UniProt P33681 35-288)
T5 construct: whole, on cells
T5 sequence (looked up): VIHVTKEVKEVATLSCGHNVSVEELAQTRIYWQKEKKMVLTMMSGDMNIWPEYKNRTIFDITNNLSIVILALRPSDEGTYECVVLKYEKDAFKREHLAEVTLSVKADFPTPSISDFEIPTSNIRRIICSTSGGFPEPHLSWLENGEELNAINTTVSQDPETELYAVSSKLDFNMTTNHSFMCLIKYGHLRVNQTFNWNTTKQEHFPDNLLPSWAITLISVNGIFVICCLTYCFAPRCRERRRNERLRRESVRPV

T6: human B7-DC expressed on 293T cells (human, UniProt Q9BQ51 20-273)
T6 construct: whole, on cells
T6 sequence (looked up): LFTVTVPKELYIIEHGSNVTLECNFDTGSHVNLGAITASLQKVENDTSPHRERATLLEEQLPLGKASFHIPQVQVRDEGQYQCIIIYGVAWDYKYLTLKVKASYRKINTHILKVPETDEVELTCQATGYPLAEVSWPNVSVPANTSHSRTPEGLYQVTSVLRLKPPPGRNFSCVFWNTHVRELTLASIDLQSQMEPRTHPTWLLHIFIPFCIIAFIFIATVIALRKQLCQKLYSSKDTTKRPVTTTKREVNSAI

T7: human B7-H4 expressed on 293T cells (human, UniProt Q7Z7D3 25-282)
T7 construct: whole, on cells
T7 sequence (looked up): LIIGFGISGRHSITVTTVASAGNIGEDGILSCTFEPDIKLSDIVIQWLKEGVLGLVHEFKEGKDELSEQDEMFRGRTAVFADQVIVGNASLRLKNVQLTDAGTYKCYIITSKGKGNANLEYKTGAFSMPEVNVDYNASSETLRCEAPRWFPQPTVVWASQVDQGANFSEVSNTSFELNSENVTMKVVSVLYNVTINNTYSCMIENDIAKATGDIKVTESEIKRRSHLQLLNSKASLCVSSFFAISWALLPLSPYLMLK

T8: human B7-2 (CD86, B70) expressed on 293T cells (human, UniProt P42081 24-329)
T8 construct: whole, on cells
T8 sequence (looked up): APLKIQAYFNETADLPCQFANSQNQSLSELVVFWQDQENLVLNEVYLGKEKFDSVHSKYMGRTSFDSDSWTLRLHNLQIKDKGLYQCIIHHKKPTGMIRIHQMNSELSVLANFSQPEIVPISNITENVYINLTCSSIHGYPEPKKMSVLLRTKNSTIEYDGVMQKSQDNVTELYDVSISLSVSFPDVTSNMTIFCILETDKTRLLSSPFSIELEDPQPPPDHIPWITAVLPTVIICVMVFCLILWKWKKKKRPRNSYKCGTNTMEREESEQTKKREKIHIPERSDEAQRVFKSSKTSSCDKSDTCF

T9: human B7-H3, 2Ig form, expressed on 293T cells (human, UniProt Q5ZPR3-2 29-316)
T9 construct: whole, on cells
T9 sequence (looked up): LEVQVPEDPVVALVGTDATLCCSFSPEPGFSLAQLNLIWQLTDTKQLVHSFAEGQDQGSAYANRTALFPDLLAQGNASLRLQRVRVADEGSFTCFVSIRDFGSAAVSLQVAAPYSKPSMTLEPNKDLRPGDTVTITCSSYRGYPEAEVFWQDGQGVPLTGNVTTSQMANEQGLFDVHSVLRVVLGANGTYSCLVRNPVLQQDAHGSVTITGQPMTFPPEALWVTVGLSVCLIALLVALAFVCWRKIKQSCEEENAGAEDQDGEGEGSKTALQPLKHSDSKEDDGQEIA

T10: human B7-H7, full length, expressed on transfected cells (B7-H7+ cells) (human, UniProt Q9UM44 23-414)
T10 construct: also called HHLA2
T10 sequence: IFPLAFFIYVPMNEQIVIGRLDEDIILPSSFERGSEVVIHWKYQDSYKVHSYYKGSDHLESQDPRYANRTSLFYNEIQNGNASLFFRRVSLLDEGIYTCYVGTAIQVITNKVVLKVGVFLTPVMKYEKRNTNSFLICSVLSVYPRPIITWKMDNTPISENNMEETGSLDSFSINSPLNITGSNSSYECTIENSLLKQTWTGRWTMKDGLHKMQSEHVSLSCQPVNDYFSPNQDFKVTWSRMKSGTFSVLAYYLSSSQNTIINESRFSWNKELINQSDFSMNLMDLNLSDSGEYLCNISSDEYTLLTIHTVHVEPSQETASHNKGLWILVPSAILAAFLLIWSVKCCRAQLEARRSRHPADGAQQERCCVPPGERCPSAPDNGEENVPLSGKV

T11: human B7-H3, 4Ig form, expressed on 293T cells (human, UniProt Q5ZPR3 29-534)
T11 construct: whole, on cells
T11 sequence (looked up): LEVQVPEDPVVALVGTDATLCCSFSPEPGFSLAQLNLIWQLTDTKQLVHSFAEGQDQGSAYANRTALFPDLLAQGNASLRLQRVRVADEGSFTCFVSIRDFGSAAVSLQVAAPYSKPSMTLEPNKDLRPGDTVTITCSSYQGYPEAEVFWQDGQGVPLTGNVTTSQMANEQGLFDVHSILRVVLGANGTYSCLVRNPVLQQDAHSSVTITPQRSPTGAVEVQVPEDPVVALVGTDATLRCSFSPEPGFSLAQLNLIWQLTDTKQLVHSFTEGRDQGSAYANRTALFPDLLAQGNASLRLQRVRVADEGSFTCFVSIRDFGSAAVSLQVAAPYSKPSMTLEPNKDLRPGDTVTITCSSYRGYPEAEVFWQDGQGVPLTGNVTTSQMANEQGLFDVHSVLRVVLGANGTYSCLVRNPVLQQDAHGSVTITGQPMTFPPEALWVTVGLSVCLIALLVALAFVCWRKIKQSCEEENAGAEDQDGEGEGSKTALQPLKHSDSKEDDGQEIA

B1: human ICOS, full length, expressed on cells (ICOS+293T cells) (receptor)
chain: EINGSANYEMFIFHNGGVQILCKYPDIVQQFKMQLLKGGQILCDLTKTKGSGNTVSIKSLKFCHSQLSNNSVSFFLYNLDHSHANYYFCNLSIFDPPPFKVTLTGGYLHIYESQLCCQLKFWLPIGCAAFVVVCILGCILICWLTKKKYSSSVHDPNGEYMFMRAVNTAKKSRLTDVTL
notes: This id also stands for ICOS on human T cells in the functional rows
B2: human B7-H7CRIg fusion protein (Fc fusion)
chain: LSVQQGPNLLQVRQGSQATLVCQVDQATAWERLRVKWTKDGAILCQPYITNGSLSLGVCGPQGRLSWQAPSHLTLQLDPVSLNHSGAYVCWAAVEIPELEEAEGNITRLFVDPDDPTQNRNRIASFPG
notes: also called B7-H67CRIg; not shown: Ig Fc tag; made from pMIgV or pHIgV plasmid
B3: human B7-2Ig fusion protein (Fc fusion, UniProt P42081 26-245, looked up)
chain: LKIQAYFNETADLPCQFANSQNQSLSELVVFWQDQENLVLNEVYLGKEKFDSVHSKYMGRTSFDSDSWTLRLHNLQIKDKGLYQCIIHHKKPTGMIRIHQMNSELSVLANFSQPEIVPISNITENVYINLTCSSIHGYPEPKKMSVLLRTKNSTIEYDGVMQKSQDNVTELYDVSISLSVSFPDVTSNMTIFCILETDKTRLLSSPFSIELEDPQPPPDH
notes: Bought from R&D Systems; Ig (Fc) part not given

How the values were obtained:
B7-H1Ig = biological target: T12, B7-H1Ig (Homo sapiens, UniProt Q9NZQ7); test: CDS well image, 293T cells transfected with the human gene, stained with the human fusion protein
T12 construct: Ig fusion protein purchased from R&D systems; also called human B7-H1Ig fusion protein
T12 sequence (Q9NZQ7 19-239 limits assumed): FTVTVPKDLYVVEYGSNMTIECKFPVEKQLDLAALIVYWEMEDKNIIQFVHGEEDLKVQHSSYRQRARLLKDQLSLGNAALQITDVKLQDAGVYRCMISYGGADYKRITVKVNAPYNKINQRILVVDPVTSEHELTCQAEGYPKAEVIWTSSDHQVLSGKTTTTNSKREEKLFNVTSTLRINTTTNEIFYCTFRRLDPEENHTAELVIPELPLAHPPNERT

[1] = biological target: B3; test: as above
B7-DCIg = biological target: T1, B7-DCIg; test: as above
[2] = biological target: T2, human B7-1Ig fusion protein; test: as above
[3] = biological target: T3, human B7-H2Ig fusion protein; test: flow cytometry on 293T cells transfected with human ICOS
[4] = biological target: T4, human B7-H2, full length, expressed on …; test: flow cytometry on 293T cells transfected with B7-H2
[5] = biological target: T13, human B7-H1 expressed on 293T cells (human, UniProt Q9NZQ7 19-290); test: flow cytometry on 293T cells transfected with B7-H1
T13 construct: whole, on cells
T13 sequence (Q9NZQ7 19-290): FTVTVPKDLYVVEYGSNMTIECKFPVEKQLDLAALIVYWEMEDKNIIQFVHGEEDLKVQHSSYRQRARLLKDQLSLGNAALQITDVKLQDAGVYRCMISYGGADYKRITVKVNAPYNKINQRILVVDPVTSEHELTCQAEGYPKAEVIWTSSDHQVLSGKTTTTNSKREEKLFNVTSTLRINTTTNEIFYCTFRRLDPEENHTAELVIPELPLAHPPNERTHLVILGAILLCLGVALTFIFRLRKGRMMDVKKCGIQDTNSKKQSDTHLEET

[6] = biological target: T5, human B7-1 (CD80) expressed on 293T …; test: flow cytometry on 293T cells transfected with B7-1
[7] = biological target: T6, human B7-DC expressed on 293T cells; test: flow cytometry on 293T cells transfected with B7-DC
[8] = biological target: T7, human B7-H4 expressed on 293T cells; test: flow cytometry on 293T cells transfected with B7-H4
[9] = biological target: T8, human B7-2 (CD86, B70) expressed on …; test: flow cytometry on 293T cells transfected with B7-2
[10] = biological target: T9, human B7-H3, 2Ig form, expressed on …; test: flow cytometry on 293T cells transfected with B7-H3 (2Ig)
[11] = biological target: T10, human B7-H7, full length, expressed on …; test: flow cytometry on B7-H7 transfected cells (sheet: B7-H7+ 293T; legend: CHO cells); B7-H7CRIg at 10 µg/ml
[12] = biological target: T11, human B7-H3, 4Ig form, expressed on …; test: flow cytometry on 293T cells transfected with B7-H3 (4Ig)
[13] = biological target: T8, human B7-2 (CD86, B70) expressed on …; test: CDS well image, 293T cells transfected with the human gene, stained with the human fusion protein
[14] = biological target: T5, human B7-1 (CD80) expressed on 293T …; test: as above
[15] = biological target: T13, human B7-H1 expressed on 293T cells; test: as above
[16] = biological target: T6, human B7-DC expressed on 293T cells; test: as above
[17] = biological target: T4, human B7-H2, full length, expressed on …; test: flow cytometry on 293T cells transfected with full length human B7-H2; B7-2Ig alone

**Q.** Does B1 bind (B7-H1Ig)?
**A.** no binding

**Q.** Does B1 bind [1]?
**A.** no binding

**Q.** Does B1 bind (B7-DCIg)?
**A.** no binding

**Q.** Does B1 bind [2]?
**A.** no binding

**Q.** Does B1 bind [3]?
**A.** binds

**Q.** Does B2 bind [4]?
**A.** no binding (tested: 10 µg/ml)

**Q.** Does B2 bind [5]?
**A.** no binding (tested: 10 µg/ml)

**Q.** Does B2 bind [6]?
**A.** no binding (tested: 10 µg/ml)

**Q.** Does B2 bind [7]?
**A.** no binding (tested: 10 µg/ml)

**Q.** Does B2 bind [8]?
**A.** no binding (tested: 10 µg/ml)

**Q.** Does B2 bind [9]?
**A.** no binding (tested: 10 µg/ml)

**Q.** Does B2 bind [10]?
**A.** no binding (tested: 10 µg/ml)

**Q.** Does B2 bind [11]?
**A.** binds

**Q.** Does B2 bind [12]?
**A.** no binding (tested: 10 µg/ml)

**Q.** Does B3 bind [13]?
**A.** no binding

**Q.** Does B3 bind [14]?
**A.** no binding

**Q.** Does B3 bind [15]?
**A.** no binding

**Q.** Does B3 bind [16]?
**A.** no binding

**Q.** Does B3 bind [17]?
**A.** no binding

Source: patent US20120219559A1 (Johns Hopkins, published 2012)
